From the DeepSol protein solubility set

Experiment: soluble on expression in E. coli; label from the status in PepcDB or PDB records

Soluble on expression in E. coli, not soluble:
MGSDKIHHHHHHMAEKQYDFTHVPKRQGNSIKWGVLKEKELPMWIAEMDFKIAPEIMASMEEKLKVAAFGYESVPAEYYKAVADWEEIEHRARPKEDWCVFASGVVPAISAMVRQFTSPGDQILVQEPVYNMFYSVIEGNGRRVISSDLIYENSKYSVNWADLEEKLATPSVRMMVFCNPHNPIGYAWSEEEVKRIAELCAKHQVLLISDEIHGDLVLTDEDITPAFTVDWDAKNWVVSLISPSKTFNLAALHAACAIIPNPDLRARAEESFFLAGIGEPNLLAIPAAIAAYEEGHDWLRELKQVLRDNFAYAREFLAKEVPEVKVLDSNASYLAWVDISALGMNAEDFCKYLREKTGLIISAGNGYRGNGHEFVRINLACPKELVIDGMQRLKQGVLNLNN, MGSDKIHHHHHHMAFVGFKKSGKTTTIEKVARVLKEKGYRVAIVKSMHSEFDRPGTDTWKFSRIADSVLVHAKDTDALLFKAKDINALFSMISSDVVLIEGFKSIKHVPKVICARSEDEVRELNDGLAIAVSGVIASQGVKEVDGLPVIDGTREPEKLAELVLKRGFMLPNIDCGLCGFNCEQMAKLIVKGEKSVNDCVVLSSRPKVIIKIDGQPLYLKDWVQELVEKTIKGMLSAMKGYREGKRIEIIING, MGSDKIHHHHHHMAFWQSKTLTEMTSQEWESLCDGCGKCCLNKLIDDETEELYYTNAACLLLDHQTTSCQHYSDRFRYVPQCTVITAQNVHELTWLPDSCAYRRLAAGRALPSWHPLLTGSKDAMHLAGMSIQGKVVDERRVKDIEDHIVLWPLKDLD, MGSDKIHHHHHHMAGANNPVITIKRGLDIPIAGEPLQQIDDAPKTTQVALIGEEYVGLKPTMSVEVGDHVVKGQVLFEDKKTPGVLFTAPASGVVCAINRGERRVLQSVVIDCDATQEPAIILESVDIHALSHQAVKDGLVRSGLWTALRTRPFSRVPQLDAAPAGIFVTAIDTNPLAPDPRVIIATQPQAFQAGLFALTFLTTEKVYLCQDDGASLLADASSEYDLSKVSVQRFNGVHPAGLVGTHIHFLLPASIERQVWHVGYQDVIAFGKLFLTGELYTDRIVALGGPNVLKPRLVRTQLGAKLSEWVNGEIDQRQSRIVSGSLLSGHTAADVYDFLGRFHNQISVLTENERQELLPWVRHDSSKFSLTGIMMSGFSRTKKLFDFTTNAGGSPRAMMAFGQLARVMPLDILPILLVRDLVVRDTDEAQLLGALELDEEDLALCTFVCPGKYDFGKELRACLDIIEREG, MGSDKIHHHHHHMAGMQIQGMQIESIDIQNYRLFKQASLNKLSRLAVFVGENGAGKSTIFDVFSFLKDSLAQNAAKAVARRGGFKELVSRGTEGPISITLKFRETGGRLATYELSVAFEGGRVVVDREVLKFRRGQRGQPWHFVDFSRGRGTAVTNEAMYGKPGVKVERKEYILDEPTVLAIKGLGQFKEFRVVSEFRNLIENWHITDFHIADARPSAEEGYAEHLSTRGDNVAQVAQFLYDHHPDRFNNILDAMKRRIPGVEKVEAKPTEDGRLVLRFQDGAFKDPFIARYVSDGTIKMFAYLVLLHDPNPFPLLAVEEPENQLYPELLQELAEEFRDYARRGGQVFISTHSPEFMNGLYLDEIYWLSKKDGYSTIYRGADSEVLKRLVAEGDHPGALWRQGVFKGAW, MGSDKIHHHHHHMAHLPQMKIPATYMRGGTSKGVFFSLTDLPAAAQVAGAARDAILLRVIGSPDPYGKHTDGMGGATSSTSKTVILSKSTQADHDVDYLFGQVSIDKPFVDWSGNCGNLTAAVGSFAISNGLIDPSRVPENGTAIVRIWQANIHKTIIAHVPITNGEVQETGDFELDGVTFPAAEVQVEFLDPADGDGAMFPTGNVVDELNVPGVGTFKATMINAGIPTIFINAADIQYQGTELQDDINNDDKALAMFETIRAYGAVKMGLIKHIDEAVARQHTPKVAFVAPAANYISSSGKAVNTDDIDLVVRALSMGKLHHAMMGTAAVAIGTAAAIPGTLVNLAAGGGELSAVRFGHPSGTLRVGAQAALVQGQWQVKKAIMSRSARVLMEGKVSIPQ, MGSDKIHHHHHHMAHPFLRTIFEVVITLYMLHNLYKVLGDDEMDLEEMSSFFNKRVNEYEEHMMNNVGGANQYYIETAKLIPRGKEINILDLGCGTGLELDEIFKINNTVRVTGIDLAENMLRKIKEKHKDKLDRLTLIVGDYFSCDIGEKVFDAALSVETLHHFNHEQKIKLYKKIVRSLKDNGVYIEADYMAPNQDYEDHCFNENKRIRLELGIKDGFYHYDTPCTVENQIKMLYKSGFKSVEKVFKAENTVILLAKK, MGSDKIHHHHHHMAKGLFDRYIWLIDTIYRAGKITFEEINKRWLRTEMSNGEEIPLRTFHNHRKAIETMFDINIECNKRAGYYYYIENADDIDKDKIKKWLLNTFAINNLANESHRLKQRILFEDIPSGKQYLSSIIEAMLENRIIEITYQSYWKEEANTFTIEPFCVKVFKQRWYIIARSPYYDTIMIYALDRIQNLQVTDITFNYPSDFDPQSYFEFSFGIVVDEICNIDKIRIKVYGKKCQYIKALPLHHSQSEVETTKSYSIFEYLLKPTYDFCQELLSHGDEIEVLSPTSLKEQIKEIVKNMSRYYN, MGSDKIHHHHHHMAKIGIVICNYNKQNDVIDCIQSVLESKYEDYHIYVVDNASTDESVRLIRECYGSCDRLTLIENSENLGGSGGFNTGLRVAMAEGHMYLMCVDNDALLDENCIGTLSDFLDSHEKAGIAAAKIYHTGQENYVQQYGSFIDYDNYSVDSTYLNHIEDGSMPDVVYSDAVPACALMIRRTVVEQIGVMPEENFLYWDDTEWCVRCREAGYEVASVGAAAASHAMGAKKEDINTFPTYYAWRNWIKFFLDHIDEERLSDMAETFLGSIFEINYTDLYRGEENRSKTVMAALDDALHKVMGKAKEDRIFNLELTYDGLERAIGDKSDIAIMAGEFPLYADALKEKIKVMWPDKRVYIVGLQDIDEAYGTAHFQPDATITICESIFRQDDLSLSTYVMDLDGNVLVDEDDVLMVINYNFSRRSFIFSMKPLFMRLSRQNYGF, MGSDKIHHHHHHMAKVAHKKLLLSELQPGMRVKLPLSWTNHPFLFNRVDINSAAQIEMIRGLGVPFVYLISGSSDDAEAVDEEEEIEEIDEMPPERDLKADTRKSMRLSQKRFLESVNQCRNVFGKIVSDPEGAYRLSAALVEDLLSHLQEVQKPFLTLVGMDEKDVSVTQHGVSVAVLAMMIGHALDLPARELRDIALGSLFHDIGKLKVPDVIRRKRSALTPHEANYLQMHPNFGYDMLNRSGLFPKEVLNIVLHHHEFVDGSGFPDGLTGHKIPMVTQIVSLANDYDQQLSGQQATSPQVALGYLFKNRASKHSESLISVLVKILGIYPPGTIVKLSDDNVAKVIMTTKEVSQPQVWACKEDGSEASLRFLSDEGVTVQKSLRVEDLTEGAKRTLQVDKGISFYFSSLQA, MGSDKIHHHHHHMALEVVLWDFDGVIFDSMHLKNEGFRALFQKHGNKNQESLKQFEVYHYQSGGISRNEKIQYFYNEILKTPIAQEEVDALALEFGTIIEQKLFDREHLNSEVMAFIDKHYKNHVFHIASAALHSELQVLCEFLGIIKYFKSVEGSPPNKPKIIANIIQKYAYNPGRMLMIGDSVNDYESAQANEVAFLGYNSKVLKNLVGQNGYQGKYLESFKGFDLQNFIKE, MGSDKIHHHHHHMALKKICLENFTVFDKMEIEFCDGVNVLIGENGTGKTHIMKLLYAACQSAHASKKVISFPQKIVQVFKPDHANISRLLSRKAGNGSAKVHVISGNNTLKTSFNLKTKNWDAEVVGAQAWEKQLSNLTSTFIPAKEILSNSKNLVNAINVGNVDFDDTYKDIISVASVDINRGPNNVQKEKYLQILQDITDGKVSYENEEFYLLPGNQAKLEFQLVAEGMRKIALLWQLIKNGTLEQGTVLFWDEPEANINPKHIPALVEVLLNLQGDGVQIFIATHDYVLAKYLEIRMADANKIRFHSLYKKEGRVEVESNHNFKDLVNNSIAEAYNKLLDEVFEQTTKG, MGSDKIHHHHHHMALRKNRGSRMQRNVIAMTEPKSLNSEQYRTIRTNIEFASVDRQMKSVMITSACPGEGKSTTAANLAVVFAQQGKKVLLIDADLRKPTVHTAFFLENTVGLTSVLLKKSSMEQAVQASNEKHLDVLTSGPIPPNPAELLSSKWMKELAYEACAAYDMVIFDTPPILAVADAQILGNVADGSVLVISSGKTEKEQAAKAKEALATCKSKLLGAIMNGKKLSKHSEYGYYGTKDNFMQK, MGSDKIHHHHHHMALTQLEQPLSPQPTPPDLRGYEYDLVIVGGGIIGLTLASALKDSGLSILLIEAKVASAAVAKGQAYAVHQLSALIYQGIGVWDKILPQIAKYRRVRLSDADYPNVVEFTTDDIHTAELGYVAEHQALLQPLQEFVQDCPNVTYLCPAEVVNTQYQKDIVAVDIKVADQLYTVRSKLLIAADGARSPIRQAAGIKTSGWKYWQSCIVAFVKPEKPHNNTAYERFWSSGPFAILPLPENRCRIVWTAPHEEAKALCALDDEQFLAELTRRYGDQMGKLELLGDRFVFQVQLMQSDRYVLPRLALIGDAAHNCHPVGGQGLNLGIRDAAALAQVIQTAHQAGKDIGDIQILKGYERWRKLENLTILGFTDLLDRMFSNNFLPVVVVRRLGLWFLQRVPLLKVFMLKLMIGLKGRTPELAKR, MGSDKIHHHHHHMALYKTESGEIHLVRDICPHRGVPLTKGWVDGEEIVCPYHGLRYNTEGKCTQIPAQPELTKISDRFSLTKFPVVQRYGLIWTSIHGRDVTQANIPVLDTWDDAEHQAILPPFVDIGGSSGRQLEGFIDVAHFAWVHHNAFANRDNPIVPKYHTERTNYGLKTVYISNVSNYPHELKHLEPEGFLWKRTFEVYPPFSAVLTVDFPEGGILKILNACCPISSNKTRLFVPLTRNFDQTGDLEKVYAFNAQIFAEDQDMVESQKPEELPLDLMMEAHFEADRSSTTYRRILAEWGLSKRYTV, MGSDKIHHHHHHMANDWLELRQHADTGIETIKAHFEGHAYDPHWHDSYLVGLTLSGTQQFHCRRERHRSRPGDAFLLEPGEIHDGDAPVDGGFTYLTFYLDEQWLTNALHGLYESTPGSYSLHFAQTLTREPQLVRSISDSFTTLHNDEMKIVQQSSMDKLLSQITAHCHWRKRLPSQLQSTAVAHRARDYLYAHMGENIGLSDLARETGTDRFTLTRCFKREFHLAPHAWFIQLRLAKARQLLAYGDQPADVAAALGFSDQSHLGRWFQRAYRISPAHYRRLCTNLPDVSRR, MGSDKIHHHHHHMANISTFEVGYCLHPGCMALRGAGWKVCRFPARVWMLESHGKRWLWDTGYAQHFTDATRSGLFQLYRRMTPVHFETKDALIHQLHAQGIQPADIDGLIISHFHGDHIAGLQDFPTVPFICSALGWQQTRNLRGFAALKRAFVPALIPEHFEQSLQFVENFPLTDLPAALAPFTQGYVLPGSDKEIVLVPLPGHAVGHLGAFVLTETGWVLLASDAAWSPHSYREGRGPSRLANLVMDDPKAYYQTLDQLHQLHLNGQVEIRLCHEGDL, MGSDKIHHHHHHMANLLSTCTSESGNIQHISPQNAGWEYVGFDVWQLKAGESITLPSDERERCLVLVAGLASVKAADSFFYRIGQRMSPFERIPAYSVYLPHHTEAKVTAETDLELAVCSAPGFGELPVRLISPQEVGVEHRGKGRNQRLVHNILPDSQLADSLLVVEVYTNEGDTSSWPAHKHDTAVEGQETYLEETYYHRFNPPQGFCLQRVYTDDRSLDECMAVYNRDVVKVPKGYHPVATIAGYDNYYLNVMAGPLRKWRFTWEENHAWINSPDYPR, MGSDKIHHHHHHMANLTFYPIGTAGEKWGETEKAAWLASTQIKRSYQDDVVTPLKAMEAKLSALGLGIVQYGALSINAERYPLFAVKSQQFDPQKPTVLVTGGVHGYETSGVHGALAFLTNEAANYVQQVNLVVAVCVSPWGYETINRWNPKAIDPNRSFYANSPAEESAALMALVASVTSVEQGFDVHVDLHETTDSDELEFRPALCARDGIEYDKGTIPDGFYAVGDTEHSMDAFQKAIIDGVSKVTHIAPADEKGEIIGSTVVQHGVINYPLKSLGLCSSVTGCIYNTTTEVYPDSPTATPAECNLAQVAAITSAIDYVLAQR
